Experimental data: article PMC4737498, “An Anti-proteome Nanobody Library Approach Yields a Specific Immunoassay for Trypanosoma congolense Diagnosis Targeting Glycosomal Aldolase” (PLoS Neglected Tropical Diseases, 2016)

Experiments:
Conditions in all cases: one partner purified
[1] = target: T1, recombinant T. congolense glycosomal aldolase (Trypanosoma congolense IL3000, UniProt G0UWE7); assay: ELISA; homologous sandwich (Nb474H-Nb474B), capture step: crude soluble proteins of E. coli expressing recombinant aldolase (10 μg/well) on coated Nb474H
T1 construct: His6-tag with a proximal tobacco etch virus cleavage site; Construct synthesised by GenScript; also called TcoALD; recombinant TcoALD; source: E. coli BL21(DE3), pET-21b(+), in crude lysate (18 h post-induction)

[2] = target: T2, native T. congolense glycosomal fructose-1,6-bisphosphate aldolase (Trypanosoma congolense (TC13 soluble …, UniProt G0UWE7)); assay: ELISA; homologous sandwich Nb474-ELISA, capture step: Nb474H coated on Nunc plate (0.02 μg/ml in PBS, overnight 4°C), T. congolense soluble proteome, infected sera or secretome added 1 h at 22°C
T2 construct: glycosomal fructose-1,6-bisphosphate aldolase of Trypanosoma congolense, UniProtKB G0UWE7; band at about 40 kDa identified by mass spectrometry; Samples came from different strains (TC13, IL3000 and others); also called TcoALD; native TcoALD; source: endogenous, T. congolense soluble proteome (TC13), sera of T. congolense infected mice, T. congolense IL3000 secretome; in fixed T. congolense …

[3] = target: T1, recombinant T. congolense glycosomal …; assay: ELISA; homologous sandwich (Nb474H-Nb474B), detection step: Nb474B on recombinant aldolase captured from crude E. coli lysate by coated Nb474H
[4] = target: T2, native T. congolense glycosomal …; assay: ELISA; homologous sandwich Nb474-ELISA, detection step: Nb474B (0.02 μg/ml, 1 h at 22°C) on antigen captured from T. congolense samples by coated Nb474H; strep-HRP and TMB

B1: Nb474H (His6-tagged Nanobody 474) (VHH)
VHH: QVQLQESGGGLVQPGGSLRLSCAASETALTYYAIGWFRQAPGKEREGVSCISRINSGSGARTDYADSVKGRFTISRDDAKNTVTLQMNSLEPEDTARYYCALDTTDRYDSANGRYYCTISSDTYDYWGQGTQVTVSS
notes: from an alpaca immunised with T. congolense TC13 soluble proteome; also called capturing Nb; His6-tag Nb; source: E. coli WK6 (pHEN6c), periplasmic extract, purified (His-Select Nickel, size exclusion chromatography)
[1]
  binding result: binds
[2]
  binding result: binds

B2: Nb474B (biotinylated Nanobody 474) (VHH)
VHH: B1 VHH
notes: same Nb as m1; also called detecting Nb; detection Nb
[3]
  binding result: binds
[4]
  binding result: binds
